{"source": "patent US20170296629A1", "about": "“INHIBITOR OF EXTRACELLULAR TRAP FORMATION IN LEUKOCYTE” (KEIO UNIVERSITY, priority 2014, published 2017)", "molecules": {"B1": {"name": "human lactoferrin: Human lactoferrin protein, Genbank NP_001186078.1 (protein, listed as Homo sapiens)", "chain": "MRKVRGPPVSCIKRDSPIQCIQAIAENRADAVTLDGGFIYEAGLAPYKLRPVAAEVYGTERQPRTHYYAVAVVKKGGSFQLNELQGLKSCHTGLRRTAGWNVPIGTLRPFLNWTGPPEPIEAAVARFFSASCVPGADKGQFPNLCRLCAGTGENKCAFSSQEPYFSYSGAFKCLRDGAGDVAFIRESTVFEDLSDEAERDEYELLCPDNTRKPVDKFKDCHLARVPSHAVVARSVNGKEDAIWNLLRQAQEKFGKDKSPKFQLFGSPSGQKDLLFKDSAIGFSRVPPRIDSGLYLGSGYFTAIQNLRKSEEEVAARRARVVWCAVGEQELRKCNQWSGLSEGSVTCSSASTTEDCIALVLKGEADAMSLDGGYVYTAGKCGLVPVLAENYKSQQSSDPDPNCVDRPVEGYLAVAVVRRSDTSLTWNSVKGKKSCHTAVDRTAGWNIPMGLLFNQTGSCKFDEYFSQSCAPGSDPRSNLCALCIGDEQGENKCVPNSNERYYGYTGAFRCLAENAGDVAFVKDVTVLQNTDGNNNEAWAKDLKLADFALLCLDGKRKPVTEARSCHLAMAPNHAVVSRMDKVERLKQVLLHQQAKFGRNGSDCPDKFCLFQSETKNLLFNDNTECLARLHGKTTYEKYLGPQYVAGITNLKKCSTSPLLEACEFLRK"}}, "system": "Healthy Individual's Peripheral Blood Neutrophil", "experiment": "Inhibition of NET formation in neutrophils pretreated with lactoferrin-derived peptide fragment; DNA concentration in culture supernatant (Picogreen)", "format": "cell-based", "conditions": "human neutrophils, pretreatment at room temperature for 30 minutes", "protocol": "Effect of Inhibiting NET Formation Stimulation of Healthy Individual's Peripheral Blood Neutrophil by Pretreatment with Lactoferrin-derived Peptide Fragment\nFor each round of experiment, 15 ml to 20 ml of peripheral blood was collected from a healthy individual by using an EDTA-containing syringe (with a needle of 18 to 22 G). After collecting the blood, in a 15 ml conical tube charged with 3 ml of Mono-Poly Resolving Medium (Cat No. DSBN100, DS Pharma Biochemical Co., Ltd.), 3.5 ml of the whole blood was gently layered over a lower layer of Mono-Poly Resolving Medium. The resultant 15 ml conical tube was centrifuged with a swing centrifuge at room temperature (15 to 30° C.) at 400×g for 20 minutes, and the conical tube was then gently taken out. An uppermost brown plasma layer and a lymphocyte/monocyte layer thereunder were removed with an aspirator or the like. In addition, a transparent layer under the lymphocyte/monocyte layer was removed as much as possible. […]\nA culture supernatant was collected, centrifuged at 200×g for 10 minutes, and the thus obtained supernatant was transferred to a fresh microcentrifuge tube. The amount of DNA was measured by using Picogreen dsDNA assay reagent (P11496 Invitrogen) in accordance with the accompanying protocol."}
{"molecule": "B1", "values": [{"measurement": "DNA concentration in the culture supernatant (release of the DNA due to the NET)", "value": "reduced in a concentration-dependent manner"}]}
